Reference: patent US20220275083A1 (EUTILEX, published 2022)

Experiments:
[1] = target: T1, PD-L1 antigen (SinoBiologics, Cat. No. 10084-H08H) (human, UniProt Q9NZQ7 19-238); assay: SPR, Biacore T200; variant captured on CM5, PD-L1 antigen injected
T1 construct: Bought antigen; also called human PD-L1
Procedure: (§1) Affinity to 4-1BB was determined using the bispecific epitope binding protein variants diluted to 5 μg/ml and then fixed to CM5 chip (Cytiva, BR-1005-30) with human capture (Cytiva, Cat. No. BR-1008-39). The 4-1BB antigen (abclon) was injected at concentrations of 100, 50, 25, 12.5, 6.25, and 3.125 nM, the association time was set to 150 seconds, and the dissociation time was set to 240 seconds. Biacore T200 (cytiva) was used as the analysis equipment.
Affinity to PD-L1 was determined using the bispecific epitope binding protein variants diluted to 10 μg/ml and then fixed to CM5 chip with human capture.

[2] = target: T2, 4-1BB antigen (abclon) (UniProt Q07011 24-186); assay: SPR, Biacore T200; variant captured on CM5, 4-1BB antigen injected
T2 construct: Bought antigen
Procedure: as §1

T2 sequence (Q07011 24-186): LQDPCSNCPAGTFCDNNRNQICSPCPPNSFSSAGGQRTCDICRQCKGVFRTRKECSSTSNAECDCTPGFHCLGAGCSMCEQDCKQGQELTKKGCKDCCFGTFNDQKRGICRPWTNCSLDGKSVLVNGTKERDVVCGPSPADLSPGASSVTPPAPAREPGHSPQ
T1 sequence (Q9NZQ7 19-238 limits assumed): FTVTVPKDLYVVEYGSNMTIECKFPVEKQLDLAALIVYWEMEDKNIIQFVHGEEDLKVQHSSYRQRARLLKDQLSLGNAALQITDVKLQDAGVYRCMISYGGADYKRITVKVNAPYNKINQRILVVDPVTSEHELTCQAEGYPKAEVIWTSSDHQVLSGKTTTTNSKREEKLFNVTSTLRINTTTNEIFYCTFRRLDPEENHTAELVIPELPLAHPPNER

Row | Binder | Kd [1] [nM] | koff [1] [s⁻¹] | kon [1] [M⁻¹ s⁻¹] | Kd [2] [nM] | koff [2] [s⁻¹] | kon [2] [M⁻¹ s⁻¹]
1 | bispecific epitope binding protein S01 (bispecific antibody, Anti-4-1BB 94kvt scFv x euPD-1 with hinge and engineered IgG1 Fc (L234A, L235A, K322A, D356E, L358M)) QVQLVQSGAEVKKPGASVKLSCKASGYTFSSYWMHWVRQAPGQGLEWIGEINPGNGHTNYNEKFKSRVTMTRDTSTSTAYMELSSLRSEDTAVYYCARSFKTARAFAYWGQGTLVTVSSGSTSGSGKPGSGEGSTKGDIVMTQSPAFLSVTPGEKVTITCRASQTISDYLHWYQQKPDQAPKLLIKYASQSISGIPSRFSGSGSGTDFTFTISSLEAEDAATYYCQDGHSWPPTFGQGTKLEIKASGGGGSGGGGSDKTHTCPPCPAPEAAGGPSVFLFPPKPKDTLMISRTPEVTCVVVDVSHEDPEVKFNWYVDGVEVHNAKTKPREEQYNSTYRVVSVLTVLHQDWLNGKEYKCAVSNKALPAPIEKTISKAKGQPREPQVYTLPPSREEMTKNQVSLTCLVKGFYPSDIAVEWESNGQPENNYKTTPPVLDSDGSFFLYSKLTVDKSRWQQGNVFSCSVMHEALHNHYTQKSLSLSPGGGGGSGGGGSFLESPDRPWNAPTFSPALLLVAEGDNATFTCSFSNASESFHVVWHRESPSGQTDTLAAFPEDRSQPGQDHRFRVTRLPNGRDFHMSVVRAQRNDSGTYVCGVISLAPKIQIKESLRAELRVTERRAEVPTAHPSPSPRPAGQFQTLVVG | 5.73 | 0.00132 | 230000 | 3.34 | 0.000537 | 161000
2 | bispecific epitope binding protein S04 (bispecific antibody, Anti-4-1BB 94kvt scFv x euPD-1 with hinge and engineered IgG1 Fc) DIVMTQSPAFLSVTPGEKVTITCRASQTISDYLHWYQQKPDQAPKLLIKYASQSISGIPSRFSGSGSGTDFTFTISSLEAEDAATYYCQDGHSWPPTFGQGTKLEIKGSTSGSGKPGSGEGSTKGQVQLVQSGAEVKKPGASVKLSCKASGYTFSSYWMHWVRQAPGQGLEWIGEINPGNGHTNYNEKFKSRVTMTRDTSTSTAYMELSSLRSEDTAVYYCARSFKTARAFAYWGQGTLVTVSSASGGGGSGGGGSDKTHTCPPCPAPEAAGGPSVFLFPPKPKDTLMISRTPEVTCVVVDVSHEDPEVKFNWYVDGVEVHNAKTKPREEQYNSTYRVVSVLTVLHQDWLNGKEYKCAVSNKALPAPIEKTISKAKGQPREPQVYTLPPSREEMTKNQVSLTCLVKGFYPSDIAVEWESNGQPENNYKTTPPVLDSDGSFFLYSKLTVDKSRWQQGNVFSCSVMHEALHNHYTQKSLSLSPGGGGGSGGGGSFLESPDRPWNAPTFSPALLLVAEGDNATFTCSFSNASESFHVVWHRESPSGQTDTLAAFPEDRSQPGQDHRFRVTRLPNGRDFHMSVVRAQRNDSGTYVCGVISLAPKIQIKESLRAELRVTERRAEVPTAHPSPSPRPAGQFQTLVVGGGGGSGGGGSGGGGSFLESPDRPWNAPTFSPALLLVAEGDNATFTCSFSNASESFHVVWHRESPSGQTDTLAAFPEDRSQPGQDHRFRVTRLPNGRDFHMSVVRAQRNDSGTYVCGVISLAPKIQIKESLRAELRVTERRAEVPTAHPSPSPRPAGQFQTLVVG | 2.34 | 0.0014 | 596000 | 2.87 | 0.000662 | 231000
3 | bispecific epitope binding protein S09 (bispecific antibody, engineered IgG1 Fc; carries euPD-1) heavy: QVQLVQSGAEVKKPGASVKLSCKASGYTFSSYWMHWVRQAPGQGLEWIGEINPGNGHTNYNEKFKSRVTMTRDTSTSTAYMELSSLRSEDTAVYYCARSFKTARAFAYWGQGTLVTVSSASTKGPSVFPLAPSSKSTSGGTAALGCLVKDYFPEPVTVSWNSGALTSGVHTFPAVLQSSGLYSLSSVVTVPSSSLGTQTYICNVNHKPSNTKVDKKVEPKSCDKTHTCPPCPAPEAAGGPSVFLFPPKPKDTLMISRTPEVTCVVVDVSHEDPEVKFNWYVDGVEVHNAKTKPREEQYNSTYRVVSVLTVLHQDWLNGKEYKCAVSNKALPAPIEKTISKAKGQPREPQVYTLPPSREEMTKNQVSLTCLVKGFYPSDIAVEWESNGQPENNYKTTPPVLDSDGSFFLYSKLTVDKSRWQQGNVFSCSVMHEALHNHYTQKSLSLSPGGGGGSGGGGSFLESPDRPWNAPTFSPALLLVAEGDNATFTCSFSNASESFHVVWHRESPSGQTDTLAAFPEDRSQPGQDHRFRVTRLPNGRDFHMSVVRAQRNDSGTYVCGVISLAPKIQIKESLRAELRVTERRAEVPTAHPSPSPRPAGQFQTLVVG light: DIVMTQSPAFLSVTPGEKVTITCRASQTISDYLHWYQQKPDQAPKLLIKYASQSISGIPSRFSGSGSGTDFTFTISSLEAEDAATYYCQDGHSWPPTFGQGTKLEIKRTVAAPSVFIFPPSDEQLKSGTASVVCLLNNFYPREAKVQWKVDNALQSGNSQESVTEQDSKDSTYSLSSTLTLSKADYEKHKVYACEVTHQGLSSPVTKSFNRGEC | 6.26 | 0.00131 | 209000 | 2.17 | 0.000568 | 261000

Now those with a lower Kd [1], led by results:

Row | Kd [1] [nM] | koff [1] [s⁻¹] | kon [1] [M⁻¹ s⁻¹] | Kd [2] [nM] | koff [2] [s⁻¹] | kon [2] [M⁻¹ s⁻¹] | Binder
4 | 1.16 | 0.00169 | 1.46e+06 | 3.66 | 0.000466 | 127000 | bispecific epitope binding protein S05 (bispecific antibody, Anti-4-1BB 94kvt scFv x euPD-1 with hinge and engineered IgG1 Fc) FLESPDRPWNAPTFSPALLLVAEGDNATFTCSFSNASESFHVVWHRESPSGQTDTLAAFPEDRSQPGQDHRFRVTRLPNGRDFHMSVVRAQRNDSGTYVCGVISLAPKIQIKESLRAELRVTERRAEVPTAHPSPSPRPAGQFQTLVVGASGGGGSGGGGSDKTHTCPPCPAPEAAGGPSVFLFPPKPKDTLMISRTPEVTCVVVDVSHEDPEVKFNWYVDGVEVHNAKTKPREEQYNSTYRVVSVLTVLHQDWLNGKEYKCAVSNKALPAPIEKTISKAKGQPREPQVYTLPPSREEMTKNQVSLTCLVKGFYPSDIAVEWESNGQPENNYKTTPPVLDSDGSFFLYSKLTVDKSRWQQGNVFSCSVMHEALHNHYTQKSLSLSPGGGGGSGGGGSQVQLVQSGAEVKKPGASVKLSCKASGYTFSSYWMHWVRQAPGQGLEWIGEINPGNGHTNYNEKFKSRVTMTRDTSTSTAYMELSSLRSEDTAVYYCARSFKTARAFAYWGQGTLVTVSSGSTSGSGKPGSGEGSTKGDIVMTQSPAFLSVTPGEKVTITCRASQTISDYLHWYQQKPDQAPKLLIKYASQSISGIPSRFSGSGSGTDFTFTISSLEAEDAATYYCQDGHSWPPTFGQGTKLEIK
5 | 2.22 | 0.00186 | 837000 | 3.72 | 0.000914 | 245000 | bispecific epitope binding protein S06 (bispecific antibody, Anti-4-1BB 94kvt scFv x euPD-1 with hinge and engineered IgG1 Fc) FLESPDRPWNAPTFSPALLLVAEGDNATFTCSFSNASESFHVVWHRESPSGQTDTLAAFPEDRSQPGQDHRFRVTRLPNGRDFHMSVVRAQRNDSGTYVCGVISLAPKIQIKESLRAELRVTERRAEVPTAHPSPSPRPAGQFQTLVVGGGGGSGGGGSGGGGSFLESPDRPWNAPTFSPALLLVAEGDNATFTCSFSNASESFHVVWHRESPSGQTDTLAAFPEDRSQPGQDHRFRVTRLPNGRDFHMSVVRAQRNDSGTYVCGVISLAPKIQIKESLRAELRVTERRAEVPTAHPSPSPRPAGQFQTLVVGASGGGGSGGGGSDKTHTCPPCPAPEAAGGPSVFLFPPKPKDTLMISRTPEVTCVVVDVSHEDPEVKFNWYVDGVEVHNAKTKPREEQYNSTYRVVSVLTVLHQDWLNGKEYKCAVSNKALPAPIEKTISKAKGQPREPQVYTLPPSREEMTKNQVSLTCLVKGFYPSDIAVEWESNGQPENNYKTTPPVLDSDGSFFLYSKLTVDKSRWQQGNVFSCSVMHEALHNHYTQKSLSLSPGGGGGSGGGGSQVQLVQSGAEVKKPGASVKLSCKASGYTFSSYWMHWVRQAPGQGLEWIGEINPGNGHTNYNEKFKSRVTMTRDTSTSTAYMELSSLRSEDTAVYYCARSFKTARAFAYWGQGTLVTVSSGSTSGSGKPGSGEGSTKGDIVMTQSPAFLSVTPGEKVTITCRASQTISDYLHWYQQKPDQAPKLLIKYASQSISGIPSRFSGSGSGTDFTFTISSLEAEDAATYYCQDGHSWPPTFGQGTKLEIK
6 | 1.58 | 0.00158 | 1e+06 | 105 | 0.000676 | 6430 | bispecific epitope binding protein S07 (bispecific antibody, Anti-4-1BB 94kvt scFv x euPD-1 with hinge and engineered IgG1 Fc) FLESPDRPWNAPTFSPALLLVAEGDNATFTCSFSNASESFHVVWHRESPSGQTDTLAAFPEDRSQPGQDHRFRVTRLPNGRDFHMSVVRAQRNDSGTYVCGVISLAPKIQIKESLRAELRVTERRAEVPTAHPSPSPRPAGQFQTLVVGASGGGGSGGGGSDKTHTCPPCPAPEAAGGPSVFLFPPKPKDTLMISRTPEVTCVVVDVSHEDPEVKFNWYVDGVEVHNAKTKPREEQYNSTYRVVSVLTVLHQDWLNGKEYKCAVSNKALPAPIEKTISKAKGQPREPQVYTLPPSREEMTKNQVSLTCLVKGFYPSDIAVEWESNGQPENNYKTTPPVLDSDGSFFLYSKLTVDKSRWQQGNVFSCSVMHEALHNHYTQKSLSLSPGGGGGSGGGGSDIVMTQSPAFLSVTPGEKVTITCRASQTISDYLHWYQQKPDQAPKLLIKYASQSISGIPSRFSGSGSGTDFTFTISSLEAEDAATYYCQDGHSWPPTFGQGTKLEIKGSTSGSGKPGSGEGSTKGQVQLVQSGAEVKKPGASVKLSCKASGYTFSSYWMHWVRQAPGQGLEWIGEINPGNGHTNYNEKFKSRVTMTRDTSTSTAYMELSSLRSEDTAVYYCARSFKTARAFAYWGQGTLVTVSS
7 | 2.22 | 0.00186 | 837000 | 6.83 | 0.000764 | 112000 | bispecific epitope binding protein S08 (bispecific antibody, Anti-4-1BB 94kvt scFv x euPD-1 with hinge and engineered IgG1 Fc) FLESPDRPWNAPTFSPALLLVAEGDNATFTCSFSNASESFHVVWHRESPSGQTDTLAAFPEDRSQPGQDHRFRVTRLPNGRDFHMSVVRAQRNDSGTYVCGVISLAPKIQIKESLRAELRVTERRAEVPTAHPSPSPRPAGQFQTLVVGGGGGSGGGGSGGGGSFLESPDRPWNAPTFSPALLLVAEGDNATFTCSFSNASESFHVVWHRESPSGQTDTLAAFPEDRSQPGQDHRFRVTRLPNGRDFHMSVVRAQRNDSGTYVCGVISLAPKIQIKESLRAELRVTERRAEVPTAHPSPSPRPAGQFQTLVVGASGGGGSGGGGSDKTHTCPPCPAPEAAGGPSVFLFPPKPKDTLMISRTPEVTCVVVDVSHEDPEVKFNWYVDGVEVHNAKTKPREEQYNSTYRVVSVLTVLHQDWLNGKEYKCAVSNKALPAPIEKTISKAKGQPREPQVYTLPPSREEMTKNQVSLTCLVKGFYPSDIAVEWESNGQPENNYKTTPPVLDSDGSFFLYSKLTVDKSRWQQGNVFSCSVMHEALHNHYTQKSLSLSPGGGGGSGGGGSDIVMTQSPAFLSVTPGEKVTITCRASQTISDYLHWYQQKPDQAPKLLIKYASQSISGIPSRFSGSGSGTDFTFTISSLEAEDAATYYCQDGHSWPPTFGQGTKLEIKGSTSGSGKPGSGEGSTKGQVQLVQSGAEVKKPGASVKLSCKASGYTFSSYWMHWVRQAPGQGLEWIGEINPGNGHTNYNEKFKSRVTMTRDTSTSTAYMELSSLRSEDTAVYYCARSFKTARAFAYWGQGTLVTVSS
